Measured values published in US20030200558A1 (MONSANTO, published 2003).

B1: β-conglycinin β subunit mutant 39335-17 (other)
chain: MDYKDDDDKLKVREDENNPFYLRSSNSFQTLFENQNGRIRLIQRFNKRSPQLENLRDYRIVQIQSKPNTIILPHHADADFIIIILSGRAILTLVNNDDRDSYNIHPGDAIRIPAGTTYYIINPHDHQNLKIIKIAIPVNKPGRYDDFFLSSTQAQQSYLQGFSHNILETSFHSEFEEINRVLLGEEEEQRQQEGVIVELSKEQIRQLSRRAKSSSRKTISSEDEPFNLRSRNPIYSNNFGKIFEITPEKTPQLRDLDIFISSVDINEGALILPHFNSKAIVILVINEGDANIEIVGIKEQQQKQKQEEEPLEVQRYRAELSEDDIIVIPAAYPFVVNATSNLNIIAIGINAENNQRNFLAGEKDNVVRQIERQVQELAFPGSAQDVERLLKKQRESYFVDAQPQQKEEGSKGRKGPFPSILGALY
B2: β-conglycinin β subunit mutant 39335-27 (other)
chain: MDYKDDDDKLKVREDENNPFYLRSSNSFQTLFENQNGRIRLIQRFNKRSPQLENLRDYRIVQIQSKPNTIILPHHADADFIIIILSGRAIITLVNNDDRDSYNIHPGDAIRIPAGTTYYIINPHDHQNLKIIKIAIPVNKPGRYDDFFLSSTQAQQSYLQGFSHNILETSFHSEFEEINRVLLGEEEEQRQQEGVIVELSKEQIRQLSRRAKSSSRKTISSEDEPFNLRSRNPIYSNNFGKIFEITPEKTPQLRDLDIFISSVDINEGALILPHFNSKAIVILVINEGDANIEIVGIKEQQQKQKQEEEPLEVQRYRAELSEDDIIVIPAAYPFVINATSNLNFLAFGINAENNQRNFLAGEKDNVVRQIERQVQELAFPGSAQDVERLLKKQRESYFVDAQPQQKEEGSKGRKGPFPSILGALY
B3: β-conglycinin β subunit mutant 39335-22 (other)
chain: MDYKDDDDKLKVREDENNPFYLRSSNSFQTLFENQNGRIRLIQRFNKRSPQLENLRDYRIVQIQSKPNTIILPHHADADFIIIILSGRAIITIVNNDDRDSYNIHPGDAIRIPAGTTYYIINPHDHQNLKIIKIAIPVNKPGRYDDFFLSSTQAQQSYLQGFSHNILETSFHSEFEEINRVLLGEEEEQRQQEGVIVELSKEQIRQLSRRAKSSSRKTISSEDEPFNLRSRNPIYSNNFGKIFEITPEKTPQLRDLDIFISSVDINEGALILPHFNSKAIVILVINEGDANIEIVGIKEQQQKQKQEEEPLEVQRYRAELSEDDIIVIPAAYPFVINATSNLNFLAFGINAENNQRNFLAGEKDNVVRQIERQVQELAFPGSAQDVERLLKKQRESYFVDAQPQQKEEGSKGRKGPFPSILGALY
B4: β-conglycinin β subunit mutant 39335-28 (other)
chain: MDYKDDDDKLKVREDENNPFYLRSSNSFQTLFENQNGRIRLIQRFNKRSPQLENLRDYRIVQFQSKPNTIILPHHADADFIIIILSGRAIITLVNNDDRDSYNIHPGDAIRIPAGTTYYIINPHDHQNLKIIKIAIPVNKPGRYDDFFLSSTQAQQSYLQGFSHNILETSFHSEFEEINRVLLGEEEEQRQQEGVIVELSKEQIRQLSRRAKSSSRKTISSEDEPFNLRSRNPIYSNNFGKIFEITPEKTPQLRDLDIFISSVDINEGALILPHFNSKAIVILVINEGDANIEIVGIKEQQQKQKQEEEPLEVQRYRAELSEDDVFVIPAAYPFVVNATSNLNIIAIGINAENNQRNFLAGEKDNVVRQIERQVQELAFPGSAQDVERLLKKQRESYFVDAQPQQKEEGSKGRKGPFPSILGALY
B5: β-conglycinin β subunit mutant 39335-19 (other)
chain: MDYKDDDDKLKVREDENNPFYLRSSNSFQTLFENQNGRIRLIQRFNKRSPQLENLRDYRIVQIQSKPNTIILPHHADADFIIIILSGRAIITLVNNDDRDSYNIHPGDAIRIPAGTTYYIINPHDHQNLKIIKIAIPVNKPGRYDDFFLSSTQAQQSYLQGFSHNILETSFHSEFEEINRVLLGEEEEQRQQEGVIVELSKEQIRQLSRRAKSSSRKTISSEDEPFNLRSRNPIYSNNFGKIFEITPEKTPQLRDLDIFISSVDINEGALILPHFNSKAIVILVINEGDANIEIVGIKEQQQKQKQEEEPLEVQRYRAELSEDDIIVIPAAYPFVVNATSNLNIIAIGINAENNQRNFLAGEKDNVVRQIERQVQELAFPGSAQDVERLLKKQRESYFVDAQPQQKEEGSKGRKGPFPSILGALY
B6: β-conglycinin β subunit mutant 39335-26 (other)
chain: MDYKDDDDKLKVREDENNPFYLRSSNSFQTLFENQNGRIRLIQRFNKRSPQLENLRDYRIVQFQSKPNTIILPHHADADFIIIILSGRAILTLVNNDDRDSYNIHPGDAQRIPAGTTYYIINPHDHQNLKIIKIAIPVNKPGRYDDFFLSSTQAQQSYLQGFSHNILETSFHSEFEEINRVLLGEEEEQRQQEGVIVELSKEQIRQLSRRAKSSSRKTISSEDEPFNLRSRNPIYSNNFGKFFEITPEKTPQLRDLDIFLSSVDINEGALLLPHFNSKAIVILVINEGDANIELVGIKEQQQKQKQEEEPLEVQRYRAELSEDDIIVIPAAYPFVVNATSNLNIIAIGINAENNQRNFLAGEKDNVVRQIERQVQELAFPGSAQDVERLLKKQRESYFVDAQPQQKEEGSKGRKGPFPSILGALY
B7: β-conglycinin β subunit mutant 39335-10 (other)
chain: MDYKDDDDKLKVREDENNPFYLRSSNSFQTLFENQNGRIRLIQRFNKRSPQLENLRDYIIVQFQSKPNTILLPHHADADFIIIILSGRAILTLVNNDDRDSYNLHPGIAQRIPAGTTYYIINPHDHQNLKIIKIAIPVNKPGRYDDFFLSSTQAQQSYLQGFSHNILETSFHSEFEEINRVLLGEEEEQRQQEGVIVELSKEQIRQLSRRAKSSSRKTISSEDEPFNLRSRNPIYSNNFGKIFEITPEKTPQLRDLDIFLSSVDINEGALLLPHFNSKAIVILVINEGDANIEIVGIKEQQQKQKQEEEPLEVQRYRAELSEDDVFVIPAAYPFVVNATSNLNFLAFGINAENNQRNFLAGEKDNVVRQIERQVQELAFPGSAQDVERLLKKQRESYIVDAQPQQKEEGSKGRKGPFPSILGALY
B8: β-conglycinin β subunit mutant 39335-29 (other)
chain: MDYKDDDDKLKVREDENNPFYLRSSNSFQTLFENQNGRIRLIQRFNKRSPQLENLRDYRIVQFQSKPNTIILPHHADADFIIIILSGRAILTLVNNDDRDSYNIHPGDAQRIPAGTTYYIINPHDHQNLKIIKIAIPVNKPGRYDDFFLSSTQAQQSYLQGFSHNILETSFHSEFEEINRVLLGEEEEQRQQEGVIVELSKEQIRQLSRRAKSSSRKTISSEDEPFNLRSRNPIYSNNFGKIFEITPEKTPQLRDLDIFISSVDINEGALILPHFNSKAIVILVINEGDANIEIVGIKEQQQKQKQEEEPLEVQRYRAELSEDDVFVIPAAYPFVVNATSNLNIIAIGINAENNQRNFLAGEKDNVVRQIERQVQELAFPGSAQDVERLLKKQRESYFVDAQPQQKEEGSKGRKGPFPSILGALY
B9: β-conglycinin β subunit mutant 39335-21 (other)
chain: MDYKDDDDKLKVREDENNPFYLRSSNSFQTLFENQNGRIRLIQRFNKRSPQLENLRDYRIVQIQSKPNTIILPHHADADFIIIILSGRAILTLVNNDDRDSYNIHPGDAQRIPAGTTYYIINPHDHQNLKIIKIAIPVNKPGRYDDFFLSSTQAQQSYLQGFSHNILETSFHSEFEEINRVLLGEEEEQRQQEGVIVELSKEQIRQLSRRAKSSSRKTISSEDEPFNLRSRNPIYSNNFGKFFEITPEKTPQLRDLDIFLSSVDINEGALILPHFNSKAIVILVINEGDANIEIVGIKEQQQKQKQEEEPLEVQRYRAELSEDDVFVIPAAYPFVINATSNLNFLAFGINAENNQRNFLAGEKDNVVRQIERQVQELAFPGSAQDVERLLKKQRESYFVDAQPQQKEEGSKGRKGPFPSILGALY
B10: β-conglycinin β subunit mutant 39335-13 (other)
chain: MDYKDDDDKLKVREDENNPFYLRSSNSFQTLFENQNGRIRLIQRFNKRSPQLENLRDYRIVQFQSKPNTIILPHHADADFIIIILSGRAILTLVNNDDRDSYNIHPGDAQRIPAGTTYYLVNPHDHQNLKIIKIAIPVNKPGRYDDFFLSSTQAQQSYLQGFSHNILETSFHSEFEEINRVLLGEEEEQRQQEGVIVELSKEQIRQLSRRAKSSSRKTISSEDEPFNLRSRNPIYSNNFGKIFEITPEKTPQLRDLDIFLSSVDINEGALLLPHFNSKAIVILVINEGDANIELVGIKEQQQKQKQEEEPLEVQRYRAELSEDDVFVIPAAYPFVVNATSNLNFLAFGINAENNQRNFLAGEKDNVVRQIERQVQELAFPGSAQDVERLLKKQRESYFVDAQPQQKEEGSKGRKGPFPSILGALY
B11: β-conglycinin β subunit mutant 39335-12 (other)
chain: MDYKDDDDKLKVREDENNPFYLRSSNSFQTLFENQNGRIRLIQRFNKRSPQLENLRDYIIVQFQSKPNTIILPHHADADFIIIILSGRAILTLVNNDDRDSYNLHPGDAQRIPAGTTYYIINPHDHQNLKIIKIAIPVNKPGRYDDFFLSSTQAQQSYLQGFSHNILETSFHSEFEEINRVLLGEEEEQRQQEGVIVELSKEQIRQLSRRAKSSSRKTISSEDEPFNLRSRNPIYSNNFGKIFEITPEKTPQLRDLDIFLSSVDINEGALLLPHFNSKAIVILVINEGDANIEIVGIKEQQQKQKQEEEPLEVQRYRAELSEDDVFVIPAAYPFVVNATSNLNFLAFGINAENNQRNFLAGEKDNVVRQIERQVQELAFPGSAQDVERLLKKQRESYIVDAQPQQKEEGSKGRKGPFPSILGALY
B12: β-conglycinin β subunit mutant 39335-25 (other)
chain: MDYKDDDDKLKVREDENNPFYLRSSNSFQTLFENQNGRIRLIQRFNKRSPQLENLRDYRIVQFQSKPNTIILPHHADADFIIIILSGRAIITLVNNDDRDSYNIHPGDAIRIPAGTTYYIINPHDHQNLKIIKIAIPVNKPGRYDDFFLSSTQAQQSYLQGFSHNILETSFHSEFEEINRVLLGEEEEQRQQEGVIVELSKEQIRQLSRRAKSSSRKTISSEDEPFNLRSRNPIYSNNFGKIFEITPEKTPQLRDLDIFISSVDINEGALILPHFNSKAIVILVINEGDANIEIVGIKEQQQKQKQEEEPLEVQRYRAELSEDDVFVIPAAYPFVVNATSNLNFLAFGINAENNQRNFLAGEKDNVVRQIERQVQELAFPGSAQDVERLLKKQRESYFVDAQPQQKEEGSKGRKGPFPSILGALY
B13: β-conglycinin β subunit mutant 39335-20 (other)
chain: MDYKDDDDKLKVREDENNPFYLRSSNSFQTLFENQNGRIRLIQRFNKRSPQLENLRDYRIVQIQSKPNTIILPHHADADFIIIILSGRAIITLVNNDDRDSYNIHPGDAIRIPAGTTYYIINPHDHQNLKIIKIAIPVNKPGRYDDFFLSSTQAQQSYLQGFSHNILETSFHSEFEEINRVLLGEEEEQRQQEGVIVELSKEQIRQLSRRAKSSSRKTISSEDEPFNLRSRNPIYSNNFGKIFEITPEKTPQLRDLDIFISSVDINEGALILPHFNSKAIVILVINEGDANIEIVGIKEQQQKQKQEEEPLEVQRYRAELSEDDVFVIPAAYPFVVNATSNLNFLAFGINAENNQRNFLAGEKDNVVRQIERQVQELAFPGSAQDVERLLKKQRESYFVDAQPQQKEEGSKGRKGPFPSILGALY

Target: the molecule itself
Test: sucrose gradient sedimentation, anti-FLAG western (self-assembly)

Binding result, no binding:
B1, B2, B3, B4, B5, B6, B7, B8, B9, B10, B11, B12, B13
